Data reported in patent publication US10786550B2, “Blockade of CCL18 signaling via CCR6 as a therapeutic option in treating interstitial lung disease” (UNIVERSITÄTSKLINIKUM FREIBURG, priority 2010, dated 2020).
“Also recorded” adds a separate entry of the source.

T1: CCR6 (Homo sapiens, UniProt P51684)
T1 sequence (P51684 1-374): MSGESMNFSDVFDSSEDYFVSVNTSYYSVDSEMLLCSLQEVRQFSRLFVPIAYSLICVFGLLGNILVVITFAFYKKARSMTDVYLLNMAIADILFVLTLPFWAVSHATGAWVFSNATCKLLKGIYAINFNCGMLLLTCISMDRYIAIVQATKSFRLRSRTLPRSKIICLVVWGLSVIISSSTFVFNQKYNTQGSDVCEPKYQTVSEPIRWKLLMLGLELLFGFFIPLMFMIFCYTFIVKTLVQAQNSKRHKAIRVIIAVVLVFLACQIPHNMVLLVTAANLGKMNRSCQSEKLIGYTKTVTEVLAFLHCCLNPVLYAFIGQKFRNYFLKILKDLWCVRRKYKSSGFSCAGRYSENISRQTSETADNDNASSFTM

B1: CCL18: human recombinant CCL18, chemokine ligand 18, ligand/agonist of CCR6 receptor (protein)
chain: AQVGTNKELCCLVYTSWQIPQKFIVDYSETSPQCPKPGVILLTKRGRQICADPNKKWVQKYISDLKLNA

Assays:
soluble CCR6 (sCCR6) = assay: Blocking of free soluble CCR6 detection by ELISA; assay type: binding, human; settings: ligand 100 ng/ml, 1 h
Description: Sera were diluted with an equal volume of PBS/BSA (1% bovine serum albumin, Sigma, Deisenhofen, Germany) either without any additives or containing CCL18 or CCL20 (both PeproTech, Hamburg, Germany; 100 ng/ml each). The diluted sera were then incubated for 1 h at 37° C. and subsequently measured by ELISA.
The sCCR6 ELISA described in Example 8 uses a monoclonal anti-CCR6 antibody as a capture antibody bound at the plate and a biotin-conjugated polyclonal anti-CCR6 antibody as a detection antibody. Most of the monoclonal anti CCR6 antibodies are directed against the N-terminal part of the receptor bearing the ligand binding site. In order to test whether the antibody recognition site of the sCCR6 molecule in sera from fibrotic patients might be covered with the ligand because of the high abundance of CCL18 in these sera, sera from healthy volunteers were incubated with 100 ng/ml of CCL18 or CCL20, respectively and sCCR6 was measured in blocked and unblocked sera by ELISA. Addition of these CCR6 ligands leads to a marked reduction of the sCCR6 signal (FIG. 20).

CCR6 [1] = biological target: T1, CCR6; assay: Inhibition of CCL18-induced CCR6 down-regulation on PBMNC/lymphocytes (FACS); assay type: cell-based; set-up: endogenous in cells; host or cells: freshly isolated human peripheral blood mononuclear cells; settings: for CCL18 induced down-regulation of CCR6 expression in presence of inhibitor: CCL18 10 ng/ml + inhibitor 100 ng/ml, FACS
Description: Freshly isolated mononuclear cells were incubated for 20 minutes with 10 ng/ml of CCL18, 100 ng/ml of the inhibitor peptide PS-AU-105 (polypeptide according to SEQ ID NO.: 9), a combination of both or were left untreated. The incubation was performed in RPMI1640 with 10% fetal calf serum and 100 U/ml Streptomycin/Penicillin at 37° C. After the incubation, the cells were centrifugated and the supernatant was discarded. The cells were fixed with 4% paraformaldehyde for 5 minutes on ice and washed twice in PBS containing 1% FCS. After fixation the cells were stained using a fluorescein-conjugated antibody against CCR6 (R&D systems, Wiesbaden, FRG) and analyzed by flow cytometry (FACScalibur and Quantiquest; both Becton Dickinson, Franklin Lakes, USA).

RLE-6TN [2] = assay: EMT of rat alveolar epithelial cell line RLE-6TN; assay type: cell-based; settings: for differentiation into fibroblast-like cells (EMT, morphology): culture period 6 days
CCR6 [3] = biological target: T1, CCR6; assay: αSMA induction in RLE-6TN transiently transfected with human CCR6; assay type: cell-based, rat; set-up: expressed in transfected cells; host or cells: RLE-6TN (rat alveolar epithelial cell line), transient transfection
Excerpt: In contrast, all stimulations induced the expression of CD90 (FIGS. 9B and C) although CD90 expression was more intense using CCL18. […] The cells were therefore transiently transfected with a commercially available plasmid containing a DNA sequence coding for human CCR6.

RLE-6TN [4] = assay: EMT of rat alveolar epithelial cell line RLE-6TN; assay type: cell-based; settings: 6 days
Description: (§1) If not otherwise mentioned cells were stimulated with 10 ng/ml human recombinant CCL18, 2.5 ng/ml TGFβ with or without additional 1 ng/ml TNFα.
After the indicated culture period the cells were washed once in PBS and lysed in ice cold lysis buffer. Whole cell lysates were boiled at 93° C. for 5 minutes in equal volumes of loading buffer (0.5M Tris-HCl pH 6.8, 2% SDS, 0, 05% bromphenolblue, 20% 2-mercaptoethanol, 10% Glycerol).
All samples were subjected to 12% sodium dodecylsulfate-PAGE, separated by electrophoresis and transferred to a polyvinylidene difluoride membrane (PVDF). After blocking for 2 h in Tris-buffered saline (TBS) containing 5% non-fat dry milk, the membranes were incubated with primary antibody (rabbit-anti-collagen I (Rockland, Gilbertsville Pa.); anti αSMA (rabbit-anti-aSMA (Abcam, Cambridge, Mass.); anti vimentin (Santa Cruz); anti CCR6: CKR6/C20, Santa Cruz) diluted 1:700 with TBS at 4° C. overnight. Visualization was performed using appropriate secondary antibodies labeled with IRDye 800CW or IRDye 700CW (Li-COR Bioscience, Bad Homburg, Germany) diluted 1:10 000-1:20000 for 2 h and scanned using Odyssey system (Li-COR Biosience) according to the manufactures instructions.

A549 = assay: EMT induction by CCL18 in adenocarcinoma cell line A549; assay type: cell-based, human
Description: Cells of the adenocarcinoma cell line A549 were seeded in 6-well plates and allowed to adhere over night. After adherence the cells were stimulated with the indicated amount of CCL18. TGFβ was used as a positive control. […]

CCR6 [5] = biological target: T1, CCR6; assay: CCL18-induced collagen I and αSMA mRNA expression in human lung fibroblast lines (real-time PCR); assay type: cell-based; set-up: endogenous in cells; settings: four human lung fibroblast cell lines
Description: as §1
After the indicated culture period total RNA was extracted using TRIzol Reagent according to the manufacturer's protocol (Invitrogen, Karlsruhe, Germany). Total RNA was reverse-transcribed with StrataScript RT (Stratagene, Santa Clara, Calif.) using oligo (dT)12-18 primer to produce cDNA according to the manufacturer's protocol. Specific primers for human CCR6, collagen type I, alpha-smooth muscle actin and GAPDH were designed using Primer3 software (Whitehead Institute for Biomedical Research, Cambridge, USA; http://frodo.wi.mit.edu/cgi-bin/primer3/primer3_www.cgi), Amplify1.2 software (University of Wisconsin, USA; http://engels.genetics.wisc.edu/amplify) using LocusLink and GenBank databases (National Center for Biotechnology Information; http://www.ncbi.nlm.nih.gov/LocusLink/index.html). Accession code numbers for the nucleotide sequences used to generate the respective primers and the primer sequences are depicted in FIG. 17.
All primers were intron-spanning and synthesized by MWG-Biotech (MWG-Biotech AG, Germany). […] A threshold cycle value (Ct) was calculated and used to compute the relative level of specific mRNA by the following formula: “relative expression=2^(Ct GAPDH-Ct CCL18)×10,000” for each cDNA sample.

CCR6 [6] = biological target: T1, CCR6; assay: CCL18-induced FGF2 release by lung fibroblasts (FGF2 ELISA); assay type: cell-based; set-up: endogenous in cells; settings: CCL18 10 ng/ml, 24 h
Description: To estimate CCL18-induced FGF2 release fibroblasts were harvested, counted and seeded 300.000 cells per well in a 6-well cell culture plate in Quantum 333. Cells were allowed to attach over night and the medium was replaced with 1 ml of DMEM plus 10% FCS. Cells were either left un-stimulated or were stimulated with 10 ng/ml of human recombinant CCL18. To block CCR6/CCL18 interaction a blocking antibody against CCR6 (R&D systems, Wiesbaden, FRG) or an irrelevant antibody (mouse anti human IgG, R&D Systems) was added to a final concentration of 20 μg/ml in parallel cultures. After 24 h of culture the supernatant was harvested and stored at −80° C. until FGF2 determination.

human primary AECII = assay: EMT of human primary alveolar epithelial cells type II; assay type: cell-based
Description: as §1
AECII were isolated as described previously (2). In brief, macroscopically tumor-free lung tissue was first sliced and slices were washed three times at 4° C. in phosphate-buffered saline (PBS) and then digested in sterile dispase solution (2.5 mg dispase II (Invitrogen GmbH, Karlsruhe, Germany) ml and 50 μg/ml DNase I (Roche Diagnostics, Mannheim, Germany)) at 37° C. for 60 minutes. After dispase digestion, the slices were thoroughly pipetted for several minutes using a 10 ml pipette with a wide inlet. Crude tissue and cell suspensions were filtered through nylon gauze with meshes of 50 and 20 μm. The cell suspension was then layered onto a density gradient solution (PAN Biotech GmbH, Aidenbach, Germany) and centrifuged at 800×g for 20 min.
The cells from interphase were washed and incubated in 100 mm Petri dishes (max. 6×10^7 cells/dish) in RPMI (Invitrogen, Karlsruhe, Germany) with 10% fetal calf serum (FCS) (PAA Laboratories GmbH, Colbe, Germany) and 1% penicillin/streptomycin (Biochrom AG, Berlin, Germany) at 37° C. in humidified incubator (5% CO2, 37° C.) for 15, 20 and if possible 30 minutes to remove adherent (mostly alveolar macrophages, monocytes and fibroblasts) from non-adherent cells. […]

[7] = sera with low and medium sCCR6 concentrations
[8] = serum with high sCCR6 concentration

Row | Molecule | sCCR6 detection by ELISA after ligand addition (soluble CCR6 (sCCR6); [7]) | reduction of sCCR6 ELISA signal (soluble CCR6 (sCCR6); [8]) | sCCR6 detection by ELISA after ligand addition (soluble CCR6 (sCCR6); [8]) | differentiation into fibroblast-like cells (EMT, morphology) (RLE-6TN [2]) | αSMA expression (fluorescence microscopy) (RLE-6TN [2]; day 6) | αSMA expression in CCR6 transfected versus mock transfected cells (CCR6 [3]) | vimentin expression (Western Blot) (RLE-6TN [4]) | αSMA expression (Western Blot) (RLE-6TN [4]) | also measured
1 | CCL20: Chemokine ligand 20, CCR6 ligand (PeproTech) [reference compound] | nearly abolishes CCR6 detection; also recorded: totally blocked | 14% | reduced by one third | – | – | – | – | – | –
2 | PS-AU-105: inhibitor peptide, polypeptide according to SEQ ID NO.: 9, binds to and inhibits CCR6 receptor (EDCCLVYTSWQIHPKFIVDYSETSPQCPK; peptide inhibitor of CCR6) | – | – | – | – | – | – | – | – | CCL18 induced down-regulation of CCR6 expression in presence of inhibitor (CCR6 [1]; 20 minutes): diminished; also recorded: fails to down-regulate the CCR6+ sub-population; CCL18 induced down-regulation of CCR6 expression in presence of inhibitor (CCR6 [1]; 20 minutes, listed as PS-AU-1015): this down-regulation does not occur; effect of inhibitor only on CCR6 expression (CCR6 [1]; inhibitor 100 ng/ml without CCL18, 20 minutes): no effect
3 | TGFβ: cytokine stimulus used as positive control for EMT [reference compound] | – | – | – | undergoes epithelial-mesenchymal transition (EMT); also recorded: more pronounced | induces αSMA expression | induced αSMA expression in both cell types; also recorded: induce αSMA expression in both cell lines | failed to induce the expression of vimentin | strong expression of αSMA | –
4 | B1 | nearly abolishes CCR6 detection; also recorded: totally blocked | 36% | reduced by one third | undergoes epithelial-mesenchymal transition (EMT); also recorded: induces a differentiation into spindle-shaped, fibroblast-like cells | did not | induced αSMA in CCR6 transfected cells, but not in mock transfected cells; also recorded: found in CCR6 transfected RLE-6TN but not in mock-transfected cells | expression of vimentin | Only a faint expression of αSMA | FSP1 mRNA expression (qPCR) (A549; 72 h): marked and dose dependent up-regulation; also recorded: up-regulation of FSP1 expression; snail expression (western blot) (A549; 72 h): induces dose-dependently the expression; also recorded: induces snail expression; E-cadherin expression (qPCR) (A549; b569: after 24 h, b77: after 72 h): substantially down-regulated; also recorded: down-regulation of E-cadherin expression; CCR6 surface expression after incubation with CCL18 (CCR6 [1]; CCL18 10 ng/ml, 20 minutes): decrease in the percentage of CCR6^+ cells; also recorded: marked down-regulation; also recorded: diminishes the peak markedly; CD90 expression (immuno-fluorescence) (RLE-6TN [2]; day 6): more intense; collagen I mRNA expression induced (CCR6 [5]): three out of four; also recorded: up-regulates collagen I expression in three of four cell lines; FGF2 release on CCL18 stimulation (CCR6 [6]; fibroblasts from fibrotic lungs): significant up-regulation; also recorded: further up-regulated; FGF2 release on CCL18 stimulation (CCR6 [6]; fibroblasts from non-fibrotic lungs): only marginal; also recorded: only marginally; αSMA and vimentin expression (Western blot) (human primary AECII; 12 days): strongly up-regulates both molecules; induction of EMT (human primary AECII; CCL18 with or without TNFα): induces EMT
